Literature values in article PMC6828933.

Target: eNOS (Homo sapiens) (UniProt P29474)
UniProt P29474, sequence (P29474 2-1203): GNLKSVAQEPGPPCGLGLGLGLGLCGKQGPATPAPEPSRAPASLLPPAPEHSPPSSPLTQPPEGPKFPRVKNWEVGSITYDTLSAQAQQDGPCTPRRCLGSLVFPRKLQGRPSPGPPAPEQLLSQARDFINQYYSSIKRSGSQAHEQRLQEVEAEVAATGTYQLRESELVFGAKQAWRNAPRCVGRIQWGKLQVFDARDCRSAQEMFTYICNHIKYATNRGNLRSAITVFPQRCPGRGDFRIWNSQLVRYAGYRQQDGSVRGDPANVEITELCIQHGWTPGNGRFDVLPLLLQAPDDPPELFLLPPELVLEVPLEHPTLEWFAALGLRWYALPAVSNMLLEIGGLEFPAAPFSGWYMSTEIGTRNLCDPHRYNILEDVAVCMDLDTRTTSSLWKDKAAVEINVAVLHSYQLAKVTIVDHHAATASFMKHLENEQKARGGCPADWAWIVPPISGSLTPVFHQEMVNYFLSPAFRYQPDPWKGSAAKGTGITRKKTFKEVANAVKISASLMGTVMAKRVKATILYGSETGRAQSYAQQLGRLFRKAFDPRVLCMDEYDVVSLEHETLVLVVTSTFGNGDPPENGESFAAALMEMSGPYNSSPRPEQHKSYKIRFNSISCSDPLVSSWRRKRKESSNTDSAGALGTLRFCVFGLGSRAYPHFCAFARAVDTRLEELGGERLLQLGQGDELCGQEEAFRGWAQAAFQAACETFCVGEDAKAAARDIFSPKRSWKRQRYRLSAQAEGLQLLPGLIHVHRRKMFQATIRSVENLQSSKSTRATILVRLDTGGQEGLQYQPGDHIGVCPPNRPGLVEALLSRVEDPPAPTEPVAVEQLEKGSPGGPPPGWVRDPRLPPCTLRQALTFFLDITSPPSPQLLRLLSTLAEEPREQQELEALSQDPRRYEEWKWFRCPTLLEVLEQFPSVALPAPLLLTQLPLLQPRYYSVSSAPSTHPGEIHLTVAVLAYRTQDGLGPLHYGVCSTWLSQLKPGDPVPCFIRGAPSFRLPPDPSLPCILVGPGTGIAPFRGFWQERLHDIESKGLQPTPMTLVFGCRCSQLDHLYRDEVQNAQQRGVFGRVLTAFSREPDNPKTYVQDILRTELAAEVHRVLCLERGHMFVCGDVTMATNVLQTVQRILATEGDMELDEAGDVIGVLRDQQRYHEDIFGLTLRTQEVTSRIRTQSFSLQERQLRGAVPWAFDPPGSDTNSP

Question: With Caveolin-1 90-99 (from UniProt Q03135) as the substance, how does the Kd read?
Answer: Its Kd is 0.042 µM.
